From the supplement of paper PMC12042874
± gives the uncertainty stated by the source.

Assay: amyloid nucleation score (Sup35N fusion, yeast selection) (log enrichment); library NNK3; higher = more nucleation; inactive = no reads after selection
How it was run: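 Growth for 7 days at 30°C on medium lacking adenine and uracil followed a 24-hour induction with 100 μM copper sulfate of psi-negative yeast expressing peptides of 20 random codons fused to Sup35N. Input and output plasmid inserts were sequenced with Illumina, and sequences with under 100 input reads were excluded. Nucleation score is the DiMSum log enrichment of output over input reads, centred on the mode score of non-aggregating sequences.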

| Substance | amyloid nucleation score |
| --- | --- |
| SSTLHRQIRRGVTVNELLRG | inactive |
| TIIDGLKCFFPAFFME | inactive |
| KKRSMD | inactive |
| VTMMLVMLFSQMFSFLAFVN | inactive |
| PVLWPLFKYVCFLTW | inactive |
| HARFTDQKTTPIWCTSVFKK | inactive |
| AGTTEWRG | inactive |
| IQSAMSLIVIYHGK | 2.69 ± 0.076 |
| IAGTIRVFYVFKAYADSPTW | inactive |
| GESYDCLLLHSRVWLSVVMG | inactive |
| TRSNRRHVRVT | inactive |
| PSQHMRSARRQVGKSTSNEG | inactive |
| ELNWWHLLVICCVYYFMVLF | inactive |
| PMHLTKVHVVRNFVTQSTRG | inactive |
| FVKLIYWLGAWVSTLCG | inactive |
| QQDTNDSGYYGRVGMLVSYW | inactive |
| PYFRMVNYYFFMTVSGRFNF | -0.507 ± 1 |
| HYVPVASDVRGMIYFRSFEW | inactive |
| LYVSCWFDLRPSTFYLGSEF | 2.48 ± 0.054 |
| LDRCDHSIVCR | inactive |
| RIVMPLSVSFMPQVKHPMYR | inactive |
| FSSFLISYRYLIVFRQMVSI | inactive |
| YDRGIVWH | inactive |

| Substance | amyloid nucleation score |
| --- | --- |
| PLTLIQDQQGRVSFSKA | inactive |
| NVFLMAYRVYACKLRGTGLS | inactive |
| LMPWTMSIWGL | inactive |
| FWLYYNFQFLDDC | inactive |
| NVYIVSIRMFCDYRVTAPKT | 2.35 ± 0.068 |
| YLGLRKIWIYL | inactive |
| TYAIYVDSGIFLEVHGNLYM | 2.64 ± 0.08 |
| RSVAVITRCSNNGRSHKC | inactive |
| YVILPLEAPFS | 1.49 ± 0.095 |
| SWTQVKRYSRSTIAILAFHT | inactive |
| VNKFNFNIVIFSNWNMYQ | 3.36 ± 0.062 |
| RDCICSRYIYGLRLSVLIWN | -0.44 ± 0.66 |
| DAPSFLSMSRFAFYNFNLYW | 1.29 ± 0.12 |
| MVRFMLFMK | inactive |
| YIFFWKRTFLP | inactive |
| DFKILKVHKSRSSNSGSEDW | inactive |
| QMCTQLSIMI | inactive |
| SSGVEAGVSRMMLQ | inactive |
| SNRQSSGISF | -0.784 ± 2.5 |
| IFTVCHVGSACSGNCTGQ | 3.01 ± 0.06 |
| LSNTRLRNMFSRDRGASLEG | inactive |
| HYNVPL | inactive |
| RAWMCIQW | 0.382 ± 0.25 |

| Substance | amyloid nucleation score |
| --- | --- |
| FLDQLSVHMQCISLEFNFGV | 2.42 ± 0.068 |
| HSCCDEWRDNGEIGNSSNRE | inactive |
| CRTTRLTLNGVIVGNAGFSI | inactive |
| VICIKEEEG | inactive |
| FTLNVIF | 1.9 ± 0.069 |
| QNLDSMRGGIRSLLVIIRKS | inactive |
| WFMVIAVCMSAFESKLARFH | inactive |
| SGISFTCMRHEMVSLTGGL | inactive |
| WPFMNYVNENCSWYSS | 1.09 ± 0.14 |
| TDLIIIRRPNFGKRGSGLGV | inactive |
| TRPSTIHFPVWFVGKSCRCD | inactive |
| KQYLDLVAFIADGYRVSGDE | inactive |
| MLPFTLMQPNVLFWMIDWED | inactive |
| RVATGVVCMM | inactive |
| CVGGSVFVACMLRSRVWGWC | inactive |
| RLNWASVRRFTLIGRSVRRS | inactive |
| SHLDGYICYCPLLKRWIDYR | -0.035 ± 0.59 |
| YHDLKNATHVV | inactive |
| SRITLPDIIMFHCMFNGTDV | 0.339 ± 0.67 |
| YICCDIRTRALRIRIRCVLM | -0.411 ± 0.75 |
| DERKPVGSHDGYSYVSVVTR | inactive |
| YGWVVSSLCYGKFYICIWNL | 0.797 ± 0.22 |
| AANVESPKIYKWCINKRGMV | inactive |

| Substance | amyloid nucleation score |
| --- | --- |
| IMGTYKSDLVAARFRFYV | inactive |
| NNDIVKGSPPPWVMFLVALH | inactive |
| KQLLAKTALAYEAIRPPIPI | inactive |
| SIDGMWTMYRRSVKYGDQFH | inactive |
| SFSDYEDMAQHLAPEAYNKC | inactive |
| WTSDSRCYMNLKRCRGYTLF | inactive |
| ESNRTFTKSTFFLTNEVKGL | inactive |
| MSDWLDELVGSPMSKREVCR | inactive |
| LSVFDMGIRKM | inactive |
| DLNIKYMVWACTSVRDCRYY | 1.01 ± 0.085 |
| KRFGFVNFNCYDLYIKFEIM | 1.28 ± 0.13 |
| FLVFGYASVGAIETWDKTAE | inactive |
| KCRVG | inactive |
| RFLDRTLIGYVCGKRRSPSS | inactive |
| LDQPGPDNLNVVNKLNFDWH | 0.419 ± 0.26 |
| YERWKLVHHGKNMYEGVYRL | inactive |
| YERLLRDKALAPIDPI | inactive |
| VLKESMLGISLLMGTLRW | 0.2 ± 0.56 |
| LNFMWRGMY | -0.135 ± 0.62 |
| FWMIVYMNNSLI | inactive |
| RMFFYWDEFYSLIVGVMSGL | inactive |
| EAPFDHPLYLRDLY | inactive |
| SVDDTLSVNGSSRSCGRGCR | -1.02 ± 1.5 |

| Substance | amyloid nucleation score |
| --- | --- |
| QKVLLWTSGPSSSRHRTEEF | inactive |
| LRGAVVVSEKTRVTTQCIAR | inactive |
| CLISQFVY | inactive |
| LQHVIFSYLLVGASSFRFHP | inactive |
| TLSSLPVPL | inactive |
| TYSGRIKLFLCWMLILSNGT | inactive |
| RVNRCLLMMVDALYQNCTLN | inactive |
| TSIMSKGGGSYLSWNWHGWL | inactive |
| RLYILAGGDFCNSCVVAYCR | 0.147 ± 0.36 |
| FIYASCDNHKIDKRYVYLLM | inactive |
| TYFILSDCQASNIFSPMSDE | 0.478 ± 0.14 |
| LEGLSKNQWGCLDATCSYTE | inactive |
| IDCLLLFSIGEVLKSGNNSR | 0.335 ± 0.17 |
| YARWDRSKYMTRYCHCCYFL | inactive |
| YLSRLIIFLSLPD | inactive |
| EFLPKWDMQARDVTTLFGCP | inactive |
| LCLMDRGYVS | -0.779 ± 1.4 |
| PVWLCSLPR | inactive |
| YSLEGSRSTVWRGVCCKLAF | 0.092 ± 0.24 |
| EYQTNNDYLQLTCLKSSWSS | inactive |
| ISLDLG | inactive |
| LVDAVHLCSNVNYTFCTNAG | 1.3 ± 0.074 |
| THSVIFRVRYHLSYNAIRIF | inactive |

| Substance | amyloid nucleation score |
| --- | --- |
| SMNFVLLRGGRRMIQQDRVR | inactive |
| AVGKM | -0.082 ± 0.88 |
| CIIRVYCFWFTDGDFYVLYR | inactive |
| YSFHLIIESPKLVLFTHFTS | inactive |
| KSAWLRLCIVR | inactive |
| FDKTCGSSRNLSRAWDNLTF | inactive |
| MFAADDLIPTKIVGSCF | inactive |
| MKRCTVFEPLPKRRLVMYLE | inactive |
| LSVLWYSWWGFNTG | inactive |
| ALSRMGEFEDYCLTMGKKVF | inactive |
| CSSKKRDV | inactive |
| CYSFLWALRGMEF | inactive |
| MFYMIFIVYQSWLKNASYLC | inactive |
| EVGVTSLTIGHVT | 1.29 ± 0.096 |
| RFIISCQRYVETTT | inactive |
| NYFCDIFNLSVNSILNYY | 0.68 ± 0.19 |
| KPCVTFSHSAIRISVTWSTN | -0.079 ± 0.38 |
| YNMLCCRLSWRYIDRRQGRR | 3.17 ± 0.072 |
| SMKVEEIICGFAVVYIDTMY | 0.256 ± 0.28 |
| KQSYCVWESNYRTMYLNVCR | inactive |
| FVEVRVD | inactive |
| SIGWSMFDNSMVREIRTRTC | inactive |
| GWTGVVFPVVSINSYQFTLF | 0.757 ± 0.33 |

| Substance | amyloid nucleation score |
| --- | --- |
| IQLIILMASTGSLYLPSDWT | 0.349 ± 0.18 |
| MALLPGVAGTSYK | -0.435 ± 1.3 |
| ALCANYCFAMFSDSGLRWTV | 1.01 ± 0.09 |
| INWCSVTDRCHKGMCLKSAG | inactive |
| SRACSTHCIFEGTWSG | inactive |
| AVDLV | inactive |
| CFQQVHN | inactive |
| IFIMKARSKFPRVPFFQEFP | 1.23 ± 0.13 |
| YEIYQFSYPRFWKYQCNCSS | inactive |
| ALCKCALG | inactive |
| LLFSLHCCCKSTYFFKSFLN | inactive |
| DFRLLWVQTMSFCLNYQAKL | inactive |
| LYPFSGESQA | inactive |
| LFSTNNYNQLWGMVGFLGFG | inactive |
| TAYVNSGVEIYGFSVTRNNS | 1.48 ± 0.11 |
| SLNKWVGCRSRIRWDLGTQF | inactive |
| VAALFKGKAVSCGGFSFFN | -0.076 ± 0.54 |
| SVFKIV | inactive |
| SLIWPSYDYLDNFLGYYSLK | inactive |
| LWKRCRNNEAFVLMVGRRQA | inactive |
| VGNNWS | inactive |
